The record followed here is article PMC2120718.

This data set can be described thus: flow cytometry of surface TCR, anti-CD3 epsilon UCHT1. As to conditions: glycan lost; control: JGN transfected with wild-type CD3 gamma.

As for CD3 gamma: N70Q, the expression_or_secretion result is “no change”.

Take CD3 gamma: N30Q: the expression_or_secretion entry is “no change”.
